According to article PMC8489946 (RNA Biology, 2021):

Biological target: T1, upf1-DE572AA-GFP (S. cerevisiae, UniProt P30771 1-971, DE572AA)
T1 sequence (looked up): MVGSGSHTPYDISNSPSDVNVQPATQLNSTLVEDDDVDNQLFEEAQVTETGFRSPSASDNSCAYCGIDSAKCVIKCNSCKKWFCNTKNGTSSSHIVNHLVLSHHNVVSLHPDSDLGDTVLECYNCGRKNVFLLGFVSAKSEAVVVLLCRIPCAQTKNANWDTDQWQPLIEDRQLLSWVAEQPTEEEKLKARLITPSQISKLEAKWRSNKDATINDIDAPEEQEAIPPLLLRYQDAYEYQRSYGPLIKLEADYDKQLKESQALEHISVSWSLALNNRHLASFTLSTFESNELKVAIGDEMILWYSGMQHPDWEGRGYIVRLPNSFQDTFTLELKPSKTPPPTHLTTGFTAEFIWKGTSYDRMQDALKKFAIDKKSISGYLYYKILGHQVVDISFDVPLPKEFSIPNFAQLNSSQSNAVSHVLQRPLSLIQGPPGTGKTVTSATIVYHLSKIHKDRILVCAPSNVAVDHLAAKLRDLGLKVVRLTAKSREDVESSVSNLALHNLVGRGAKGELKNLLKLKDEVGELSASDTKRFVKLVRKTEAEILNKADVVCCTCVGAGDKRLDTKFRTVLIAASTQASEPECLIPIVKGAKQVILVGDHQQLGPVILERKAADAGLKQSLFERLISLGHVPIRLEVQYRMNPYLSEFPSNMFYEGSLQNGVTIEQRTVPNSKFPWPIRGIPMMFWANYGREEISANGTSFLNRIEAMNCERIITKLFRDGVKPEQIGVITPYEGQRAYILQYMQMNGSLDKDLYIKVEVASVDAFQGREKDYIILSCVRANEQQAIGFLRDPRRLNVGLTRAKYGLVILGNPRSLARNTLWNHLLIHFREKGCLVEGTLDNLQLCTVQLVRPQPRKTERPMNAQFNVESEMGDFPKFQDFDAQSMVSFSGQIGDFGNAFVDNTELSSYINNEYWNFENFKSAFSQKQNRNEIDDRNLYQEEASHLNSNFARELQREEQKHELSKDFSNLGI
Assay: co-IP

- fold co-precipitation relative to wild-type Upf1-GFP: > 1.5 fold
B1: Gbp2 (natural protein, UniProt P25555 1-427, looked up)
chain: MERELGMYGNDRSRSRSPVRRRLSDDRDRYDDYNDSSSNNGNGSRRQRRDRGSRFNDRYDQSYGGSRYHDDRNWPPRRGGRGRGGSRSFRGGRGGGRGRTLGPIVERDLERQFDATKRNFENSIFVRNLTFDCTPEDLKELFGTVGEVVEADIITSKGHHRGMGTVEFTKNESVQDAISKFDGALFMDRKLMVRQDNPPPEAAKEFSKKATREEIDNGFEVFIINLPYSMNWQSLKDMFKECGHVLRADVELDFNGFSRGFGSVIYPTEDEMIRAIDTFNGMEVEGRVLEVREGRFNKRKNNDRYNQRREDLEDTRGTEPGLAQDAAVHIDETAAKFTEGVNPGGDRNCFIYCSNLPFSTARSDLFDLFGPIGKINNAELKPQENGQPTGVAVVEYENLVDADFCIQKLNNYNYGGCSLQISYARRD
